The source of these data is paper PMC6764859 (Nature chemical biology, 2019).

The target in experiment [1] is PTCH1_(ECD2), biotinylated (BLI) (human, UniProt Q13635, biotin on the BirA-recognition sequence). The experiment in a line: BLI. (Biolayer interferometry detects binding as a change in optical thickness at a sensor tip.)
For experiment [2], the target named is PTCH1_(ECD1), biotinylated (BLI) (human, UniProt Q13635, biotin on the BirA-recognition sequence). The experiment can be described thus: BLI.
Sequence of PTCH1_(ECD1), biotinylated (BLI) (Q13635 139-428): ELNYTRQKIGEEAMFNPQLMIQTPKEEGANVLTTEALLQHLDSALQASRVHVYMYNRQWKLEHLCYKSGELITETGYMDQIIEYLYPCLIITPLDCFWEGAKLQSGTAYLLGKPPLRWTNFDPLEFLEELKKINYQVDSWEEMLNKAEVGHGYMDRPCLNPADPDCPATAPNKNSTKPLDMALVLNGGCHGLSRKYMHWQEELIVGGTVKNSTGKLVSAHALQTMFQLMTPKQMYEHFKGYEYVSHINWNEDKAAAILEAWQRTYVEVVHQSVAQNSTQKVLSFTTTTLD

Sequence of PTCH1_(ECD2), biotinylated (BLI) (Q13635 772-1023): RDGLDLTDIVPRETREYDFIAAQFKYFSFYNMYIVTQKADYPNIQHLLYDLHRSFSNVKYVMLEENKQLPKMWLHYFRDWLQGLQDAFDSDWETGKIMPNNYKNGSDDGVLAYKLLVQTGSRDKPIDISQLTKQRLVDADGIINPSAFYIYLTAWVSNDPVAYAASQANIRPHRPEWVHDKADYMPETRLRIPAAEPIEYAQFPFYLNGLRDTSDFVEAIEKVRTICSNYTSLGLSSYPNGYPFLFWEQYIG

B1: NB75 (VHH)
VHH: QVQLQESGGGLVQAGDSLTLSCAASGRTFSSYTMGWFRQAPGKERDFIAGITSTGSSTYYADSVKGRFTISRDNAKNTVYLQMNSLKPEDTADYYCARKVAGGSYYQKDKYDYWGQGTQVTVSS
For B1, the binding result in experiment [1] is “binds”.

B2: NB64 (VHH)
VHH: QVQLQESGGGLVQPGGSLRLSCAASGSGNSINVMGWYRQAPGKPRELVAEITSSGTTNYADSVKGRFSISRDNAKNTVPLQMNSLKPEDTAIYYCSAVLVRFGGLRRSYWGQGTQVTVSS
B2: the binding result in experiment [2] is “binds”.
